B1: Plasmodium falciparum GMP synthetase wildtype (enzyme)
chain: MEGEEYDKILVLNFGSQYFHLIVKRLNNIKIFSETKDYGVELKDIKDMNIKGVILSGGPYSVTEAGSPHLKKEVFEYFLEKKIPIFGICYGMQEIAVQMNGEVKKSKTSEYGCTDVNILRNDNINNITYCRNFGDSSSAMDLYSNYKLMNETCCLFENIKSDITTVWMNHNDEVTKIPENFYLVSSSENCLICSIYNKEYNIYGVQYHPEVYESLDGELMFYNFAYNICKCKKQFDPIRYHELELKNIEKYKHDHYVIAAMSGGIDSTVAAAYTHKIFKERFFGIFIDNGLLRKNEAENVYTFLKSTFPDMNITKIDASENFLSNLQGVTDPEQKRKIIGKLFIEEFEKAVNNIDIDINKTFLLQGTLYPDIIESKCSKNLSDTIKTHHNVGGLPKNLKFKLFEPFKYLFKDDVKTLSRELNLPEEITNRHPFPGPGLAIRVIGEINKHKLNILREVDDIFINDLKQYGLYNQISQAFAVLLSSKSVGVRGDARSYDYVCVLRAVKTSSFMTANWYQIPYDILDKITTRILSEVKGVNRILYDVSSKPPATIEFE
B2: PfGMPS_D412A (enzyme, Plasmodium falciparum)
chain: MEGEEYDKILVLNFGSQYFHLIVKRLNNIKIFSETKDYGVELKDIKDMNIKGVILSGGPYSVTEAGSPHLKKEVFEYFLEKKIPIFGICYGMQEIAVQMNGEVKKSKTSEYGCTDVNILRNDNINNITYCRNFGDSSSAMDLYSNYKLMNETCCLFENIKSDITTVWMNHNDEVTKIPENFYLVSSSENCLICSIYNKEYNIYGVQYHPEVYESLDGELMFYNFAYNICKCKKQFDPIRYHELELKNIEKYKHDHYVIAAMSGGIDSTVAAAYTHKIFKERFFGIFIDNGLLRKNEAENVYTFLKSTFPDMNITKIDASENFLSNLQGVTDPEQKRKIIGKLFIEEFEKAVNNIDIDINKTFLLQGTLYPDIIESKCSKNLSDTIKTHHNVGGLPKNLKFKLFEPFKYLFKADVKTLSRELNLPEEITNRHPFPGPGLAIRVIGEINKHKLNILREVDDIFINDLKQYGLYNQISQAFAVLLSSKSVGVRGDARSYDYVCVLRAVKTSSFMTANWYQIPYDILDKITTRILSEVKGVNRILYDVSSKPPATIEFE
B3: PfGMPS R539L (enzyme, Plasmodium falciparum)
chain: MEGEEYDKILVLNFGSQYFHLIVKRLNNIKIFSETKDYGVELKDIKDMNIKGVILSGGPYSVTEAGSPHLKKEVFEYFLEKKIPIFGICYGMQEIAVQMNGEVKKSKTSEYGCTDVNILRNDNINNITYCRNFGDSSSAMDLYSNYKLMNETCCLFENIKSDITTVWMNHNDEVTKIPENFYLVSSSENCLICSIYNKEYNIYGVQYHPEVYESLDGELMFYNFAYNICKCKKQFDPIRYHELELKNIEKYKHDHYVIAAMSGGIDSTVAAAYTHKIFKERFFGIFIDNGLLRKNEAENVYTFLKSTFPDMNITKIDASENFLSNLQGVTDPEQKRKIIGKLFIEEFEKAVNNIDIDINKTFLLQGTLYPDIIESKCSKNLSDTIKTHHNVGGLPKNLKFKLFEPFKYLFKDDVKTLSRELNLPEEITNRHPFPGPGLAIRVIGEINKHKLNILREVDDIFINDLKQYGLYNQISQAFAVLLSSKSVGVRGDARSYDYVCVLRAVKTSSFMTANWYQIPYDILDKITTRILSEVKGVNLILYDVSSKPPATIEFE
B4: PfGMPS H389A (enzyme, Plasmodium falciparum)
chain: MEGEEYDKILVLNFGSQYFHLIVKRLNNIKIFSETKDYGVELKDIKDMNIKGVILSGGPYSVTEAGSPHLKKEVFEYFLEKKIPIFGICYGMQEIAVQMNGEVKKSKTSEYGCTDVNILRNDNINNITYCRNFGDSSSAMDLYSNYKLMNETCCLFENIKSDITTVWMNHNDEVTKIPENFYLVSSSENCLICSIYNKEYNIYGVQYHPEVYESLDGELMFYNFAYNICKCKKQFDPIRYHELELKNIEKYKHDHYVIAAMSGGIDSTVAAAYTHKIFKERFFGIFIDNGLLRKNEAENVYTFLKSTFPDMNITKIDASENFLSNLQGVTDPEQKRKIIGKLFIEEFEKAVNNIDIDINKTFLLQGTLYPDIIESKCSKNLSDTIKTHANVGGLPKNLKFKLFEPFKYLFKDDVKTLSRELNLPEEITNRHPFPGPGLAIRVIGEINKHKLNILREVDDIFINDLKQYGLYNQISQAFAVLLSSKSVGVRGDARSYDYVCVLRAVKTSSFMTANWYQIPYDILDKITTRILSEVKGVNRILYDVSSKPPATIEFE
B5: PfGMPS_K411L (enzyme, Plasmodium falciparum)
chain: MEGEEYDKILVLNFGSQYFHLIVKRLNNIKIFSETKDYGVELKDIKDMNIKGVILSGGPYSVTEAGSPHLKKEVFEYFLEKKIPIFGICYGMQEIAVQMNGEVKKSKTSEYGCTDVNILRNDNINNITYCRNFGDSSSAMDLYSNYKLMNETCCLFENIKSDITTVWMNHNDEVTKIPENFYLVSSSENCLICSIYNKEYNIYGVQYHPEVYESLDGELMFYNFAYNICKCKKQFDPIRYHELELKNIEKYKHDHYVIAAMSGGIDSTVAAAYTHKIFKERFFGIFIDNGLLRKNEAENVYTFLKSTFPDMNITKIDASENFLSNLQGVTDPEQKRKIIGKLFIEEFEKAVNNIDIDINKTFLLQGTLYPDIIESKCSKNLSDTIKTHHNVGGLPKNLKFKLFEPFKYLFLDDVKTLSRELNLPEEITNRHPFPGPGLAIRVIGEINKHKLNILREVDDIFINDLKQYGLYNQISQAFAVLLSSKSVGVRGDARSYDYVCVLRAVKTSSFMTANWYQIPYDILDKITTRILSEVKGVNRILYDVSSKPPATIEFE
B6: PfGMPS_K415L (enzyme, Plasmodium falciparum)
chain: MEGEEYDKILVLNFGSQYFHLIVKRLNNIKIFSETKDYGVELKDIKDMNIKGVILSGGPYSVTEAGSPHLKKEVFEYFLEKKIPIFGICYGMQEIAVQMNGEVKKSKTSEYGCTDVNILRNDNINNITYCRNFGDSSSAMDLYSNYKLMNETCCLFENIKSDITTVWMNHNDEVTKIPENFYLVSSSENCLICSIYNKEYNIYGVQYHPEVYESLDGELMFYNFAYNICKCKKQFDPIRYHELELKNIEKYKHDHYVIAAMSGGIDSTVAAAYTHKIFKERFFGIFIDNGLLRKNEAENVYTFLKSTFPDMNITKIDASENFLSNLQGVTDPEQKRKIIGKLFIEEFEKAVNNIDIDINKTFLLQGTLYPDIIESKCSKNLSDTIKTHHNVGGLPKNLKFKLFEPFKYLFKDDVLTLSRELNLPEEITNRHPFPGPGLAIRVIGEINKHKLNILREVDDIFINDLKQYGLYNQISQAFAVLLSSKSVGVRGDARSYDYVCVLRAVKTSSFMTANWYQIPYDILDKITTRILSEVKGVNRILYDVSSKPPATIEFE
B7: PfGMPS E553L (enzyme, Plasmodium falciparum)
chain: MEGEEYDKILVLNFGSQYFHLIVKRLNNIKIFSETKDYGVELKDIKDMNIKGVILSGGPYSVTEAGSPHLKKEVFEYFLEKKIPIFGICYGMQEIAVQMNGEVKKSKTSEYGCTDVNILRNDNINNITYCRNFGDSSSAMDLYSNYKLMNETCCLFENIKSDITTVWMNHNDEVTKIPENFYLVSSSENCLICSIYNKEYNIYGVQYHPEVYESLDGELMFYNFAYNICKCKKQFDPIRYHELELKNIEKYKHDHYVIAAMSGGIDSTVAAAYTHKIFKERFFGIFIDNGLLRKNEAENVYTFLKSTFPDMNITKIDASENFLSNLQGVTDPEQKRKIIGKLFIEEFEKAVNNIDIDINKTFLLQGTLYPDIIESKCSKNLSDTIKTHHNVGGLPKNLKFKLFEPFKYLFKDDVKTLSRELNLPEEITNRHPFPGPGLAIRVIGEINKHKLNILREVDDIFINDLKQYGLYNQISQAFAVLLSSKSVGVRGDARSYDYVCVLRAVKTSSFMTANWYQIPYDILDKITTRILSEVKGVNRILYDVSSKPPATILFE
B8: PfGMPS_N390A (enzyme, Plasmodium falciparum)
chain: MEGEEYDKILVLNFGSQYFHLIVKRLNNIKIFSETKDYGVELKDIKDMNIKGVILSGGPYSVTEAGSPHLKKEVFEYFLEKKIPIFGICYGMQEIAVQMNGEVKKSKTSEYGCTDVNILRNDNINNITYCRNFGDSSSAMDLYSNYKLMNETCCLFENIKSDITTVWMNHNDEVTKIPENFYLVSSSENCLICSIYNKEYNIYGVQYHPEVYESLDGELMFYNFAYNICKCKKQFDPIRYHELELKNIEKYKHDHYVIAAMSGGIDSTVAAAYTHKIFKERFFGIFIDNGLLRKNEAENVYTFLKSTFPDMNITKIDASENFLSNLQGVTDPEQKRKIIGKLFIEEFEKAVNNIDIDINKTFLLQGTLYPDIIESKCSKNLSDTIKTHHAVGGLPKNLKFKLFEPFKYLFKDDVKTLSRELNLPEEITNRHPFPGPGLAIRVIGEINKHKLNILREVDDIFINDLKQYGLYNQISQAFAVLLSSKSVGVRGDARSYDYVCVLRAVKTSSFMTANWYQIPYDILDKITTRILSEVKGVNRILYDVSSKPPATIEFE
B9: PfGMPS K547L (enzyme, Plasmodium falciparum)
chain: MEGEEYDKILVLNFGSQYFHLIVKRLNNIKIFSETKDYGVELKDIKDMNIKGVILSGGPYSVTEAGSPHLKKEVFEYFLEKKIPIFGICYGMQEIAVQMNGEVKKSKTSEYGCTDVNILRNDNINNITYCRNFGDSSSAMDLYSNYKLMNETCCLFENIKSDITTVWMNHNDEVTKIPENFYLVSSSENCLICSIYNKEYNIYGVQYHPEVYESLDGELMFYNFAYNICKCKKQFDPIRYHELELKNIEKYKHDHYVIAAMSGGIDSTVAAAYTHKIFKERFFGIFIDNGLLRKNEAENVYTFLKSTFPDMNITKIDASENFLSNLQGVTDPEQKRKIIGKLFIEEFEKAVNNIDIDINKTFLLQGTLYPDIIESKCSKNLSDTIKTHHNVGGLPKNLKFKLFEPFKYLFKDDVKTLSRELNLPEEITNRHPFPGPGLAIRVIGEINKHKLNILREVDDIFINDLKQYGLYNQISQAFAVLLSSKSVGVRGDARSYDYVCVLRAVKTSSFMTANWYQIPYDILDKITTRILSEVKGVNRILYDVSSLPPATIEFE
B10: PfGMPS D413A (enzyme, Plasmodium falciparum)
chain: MEGEEYDKILVLNFGSQYFHLIVKRLNNIKIFSETKDYGVELKDIKDMNIKGVILSGGPYSVTEAGSPHLKKEVFEYFLEKKIPIFGICYGMQEIAVQMNGEVKKSKTSEYGCTDVNILRNDNINNITYCRNFGDSSSAMDLYSNYKLMNETCCLFENIKSDITTVWMNHNDEVTKIPENFYLVSSSENCLICSIYNKEYNIYGVQYHPEVYESLDGELMFYNFAYNICKCKKQFDPIRYHELELKNIEKYKHDHYVIAAMSGGIDSTVAAAYTHKIFKERFFGIFIDNGLLRKNEAENVYTFLKSTFPDMNITKIDASENFLSNLQGVTDPEQKRKIIGKLFIEEFEKAVNNIDIDINKTFLLQGTLYPDIIESKCSKNLSDTIKTHHNVGGLPKNLKFKLFEPFKYLFKDAVKTLSRELNLPEEITNRHPFPGPGLAIRVIGEINKHKLNILREVDDIFINDLKQYGLYNQISQAFAVLLSSKSVGVRGDARSYDYVCVLRAVKTSSFMTANWYQIPYDILDKITTRILSEVKGVNRILYDVSSKPPATIEFE

Molecular target: the molecule itself
Assay: SEC
B1: binds. B2: binds. B3: binds. B4: binds. B5: binds. B6: binds. B7: binds. B8: binds. B9: binds. B10: binds.
